Patent US20160193316A1 (priority 1994, published 2016)

What was measured:
[1] = biological target: HLA-A*0201 (Homo sapiens, UniProt P04439, D140Y/D185E/D98H/E176V/E277Q/G131W/G231S/I119V/I121R/I166T/I218V/L300P/L318F/N151K/N90K/P208A/P217A/Q86G/Q94H/R138H/R169H/T345S); assay: HLA class I peptide binding assay; details: Malaria A02 motif peptides, Table VIII; unit not given
[2] = biological target: T1, DRB1*1501 (DR2w2β1) (Homo sapiens, UniProt P01903+P01911); assay: HLA class II peptide binding assay; details: Table XIXb; DR2w2β1
T1 construct: expressed in transfected cells; host or cells: L466.1 (fibroblasts)

[3] = biological target: T2, DRB1*0901 (DR9) (Homo sapiens, UniProt P01903+P01911, A100R/A103E/D57H/D86V/F55Y/F60I/F76Y/I96F/K127E/L162R/M171V/P40D/Q125H/Q99R/R33Q/R42F/S133A/S66N/T210M/V115G/W38K/Y107V/Y59G/Y89S); assay: biochemical; type: binding
T2 construct: endogenous in cells; host or cells: HID

[4] = biological target: T3, DRB1*0405 (DR4w15) (Homo sapiens, UniProt P01903+P01911, A100R/A169T/D86S/F76Y/I96L/K127E/L162R/M171V/N62H/P40V/Q125Y/R42H/S133A/S149N/S66Y/V115G/V209L/W38E); assay: HLA class II peptide binding assay; details: Table XIXb; DR4w15
T3 construct: endogenous in cells; host or cells: KT3

[5] = biological target: T4, DRB5*0101 (DR2w2β2) (Homo sapiens, UniProt P01903+Q30154); type: binding
T4 construct: expressed in transfected cells; host or cells: L416.3 (fibroblasts) or GM3107

[6] = biological target: T5, DRB1*0401 (DR4w4) (Homo sapiens, UniProt P01903+P01911, A100K/A169T/F76Y/I96L/K127E/L162R/M171V/N62H/P40V/Q125Y/R42H/S133A/S149N/S66Y/V115G/V209L/W38E); assay: HLA class II peptide binding assay; details: Table XIXb; DR4w4
T5 construct: endogenous in cells; host or cells: Preiss
T5 sequence (P01903 26-254 partner, other chains not shown): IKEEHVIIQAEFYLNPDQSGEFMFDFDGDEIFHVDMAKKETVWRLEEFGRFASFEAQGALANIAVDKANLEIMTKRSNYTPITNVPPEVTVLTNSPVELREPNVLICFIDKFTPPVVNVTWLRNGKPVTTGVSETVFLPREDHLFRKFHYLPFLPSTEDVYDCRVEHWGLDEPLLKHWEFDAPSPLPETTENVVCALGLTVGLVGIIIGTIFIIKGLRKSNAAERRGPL

[7] = biological target: T6, DRB4*0101 (DRw53) (Homo sapiens, UniProt P01903+P13762, G164S); assay: HLA class II peptide binding assay (pH 5.0); details: Table XIXb; DRw53
T6 construct: expressed in transfected cells; host or cells: L257.6 (fibroblasts)

[8] = biological target: T7, DRB1*0301 (DR3) (Homo sapiens, UniProt P01903+P01911, A100K/A102G/A103R/A169T/F55Y/I96L/K41T/L162R/M171V/P40S/Q125H/Q178H/Q39Y/R42S/S66N/T106N/T262R/W38E/Y61H); assay: HLA class II peptide binding assay (pH 4.5); details: Table XIXb; DR3
T7 construct: endogenous in cells; host or cells: MAT

[9] = biological target: T8, DRB1*1201 (DR5w12) (Homo sapiens, UniProt P01903+P01911, A100R/A169T/D57E/D86V/F55L/H45Y/K41T/L162R/M171V/P40S/Q125H/Q178H/Q39Y/Q99D/R42G/S66L/T262R/V114A/V67L/W38E/Y59H/Y61H/Y89S); assay: HLA class II peptide binding assay; details: Table XIXb; DR5w12
T8 construct: endogenous in cells; host or cells: Herluf

[10] = biological target: T9, DRB1*0701 (DR7) (Homo sapiens, UniProt P01903+P01911, A100R/A102G/A103Q/D57E/D86V/E43K/F76Y/K127E/L162R/M171V/P40G/Q125H/Q99D/R33Q/R42Y/R54Q/S133A/S66F/T210M/V115G/Y107V/Y59L/Y89S); assay: biochemical; type: binding
T9 construct: endogenous in cells; host or cells: Pitout

[11] = biological target: T10, DRB1*1302 (DR6w19) (Homo sapiens, UniProt P01903+P01911, A100E/A169T/K41T/L162R/M171V/P40S/Q125H/Q178H/Q39Y/Q99D/R42S/S66N/T262R/V115G/W38E/Y61H); assay: HLA class II peptide binding assay; details: Table XIXb; DR6w19
T10 construct: endogenous in cells; host or cells: H0301
T10 sequence (P01903 26-254, other chains not shown): as the sequence (P01903 26-254 partner, other chains not shown) above

[12] = biological target: T11, DRB1*1101 (DR5w11) (Homo sapiens, UniProt P01903+P01911, A100R/A169T/A87E/I96F/K41T/L162R/M171V/P40S/Q125H/Q178H/Q39Y/Q99D/R42S/S66Y/T262R/V115G/W38E); assay: biochemical; type: binding
T11 construct: endogenous in cells; host or cells: Sweig
T11 sequence (P01903 26-254, other chains not shown): as the sequence (P01903 26-254 partner, other chains not shown) above

[13] = biological target: T12, DRB1*0101 (DR1) (Homo sapiens, UniProt P01903+P01911, A100R/D57E/F55L/F60I/F76Y/I96L/L162R/M171V/P40L/Q125E/R42F/V115G/Y59C); assay: HLA class II peptide binding assay; details: Table XIXb, Malaria Super Motif Peptides With Binding Data; DR1
T12 construct: endogenous in cells; host or cells: LG2
T12 sequence (P01903 26-254 partner, other chains not shown): as above

[14] = biological target: T13, DRB1*0802 (DR8w2) (Homo sapiens, UniProt P01903+P01911, A100R/A103L/A169T/F76Y/H45Y/I96F/K41T/L162R/M171V/P40S/Q125H/Q178H/Q39Y/Q99D/R218S/R42G/S66Y/V115G/W38E); assay: biochemical; type: binding
T13 construct: endogenous in cells; host or cells: OLL

[15] = biological target: HLA-A*2402 (Homo sapiens, UniProt P04439, D101N/D140Y/D185E/E176V/E190D/F33S/G103R/G107R/I119L/I121M/I306V/K335N/L105A/L180Q/L300P/N151K/N90K/Q86E/Q94H/R106L/R138H/R89G/T104I/T345S/V100E/W191G/Y123F); assay: HLA class I peptide binding assay
[16] = biological target: T14, HLA-B*0702 (Homo sapiens, UniProt P01889); assay: HLA class I peptide binding assay; details: Malaria B07 super motif peptides; binding value, no unit
T14 construct: endogenous in cells; host or cells: GM3107

## VLLGGVCLVL
[1]
  A*0201 (binding information): 0.0290

## YQNNIVDEI
[2]
  DR2w2β1 binding data: 0.0001
[3]
  DR9 binding data: -0.0005
[4]
  DR4w15 binding data: -0.0014
[5]
  DR2w2β2 binding data: -0.0006
[6]
  DR4w4 binding data: -0.0006
[7]
  DRw53 binding data: 0.0850
[8]
  DR3 binding data: 0.0026
[9]
  DR5w12 binding data: 0.0001
[10]
  DR7 binding data: -0.0003
[11]
  DR6w19 binding data: 0.0810
[12]
  DR5w11 binding data: -0.0004
[13]
  DR1 binding data: 0.0001
[14]
  DR8w2 binding data: -0.0003

## YYIPHQSSL
[15]
  A*201 (binding information): 4.3000
  A*2401 (binding information, Malaria A24 motif peptides): 4.3000

## GPFMKAVCV
[16]
  B*0702 (binding information): 0.0023

## LTMSNVKNV
[2]
  DR2w2β1 binding data: 0.0003
[3]
  DR9 binding data: 0.0710
[4]
  DR4w15 binding data: 0.0074
[5]
  DR2w2β2 binding data: 0.0009
[6]
  DR4w4 binding data: 0.0023
[7]
  DRw53 binding data: 0.0024
[8]
  DR3 binding data: 0.0058
[9]
  DR5w12 binding data: 0.0001
[10]
  DR7 binding data: 0.0410
[11]
  DR6w19 binding data: 0.0430
[12]
  DR5w11 binding data: 0.0030
[13]
  DR1 binding data: 0.0018
[1]
  A*0201 (binding information): 0.0010
[14]
  DR8w2 binding data: 0.0110

## LIFFDLFLV
[2]
  DR2w2β1 binding data: 0.0048
[3]
  DR9 binding data: -0.0003
[4]
  DR4w15 binding data: -0.0009
[5]
  DR2w2β2 binding data: 0.0019
[6]
  DR4w4 binding data: 0.0130
[8]
  DR3 binding data: -0.0008
[9]
  DR5w12 binding data: 0.0016
[10]
  DR7 binding data: 0.0028
[11]
  DR6w19 binding data: 0.0006
[12]
  DR5w11 binding data: 0.0019
[13]
  DR1 binding data: 0.0006
[1]
  A*0201 (binding information): 0.0890
[14]
  DR8w2 binding data: 0.0007

## AMICLIQQLNL
[1]
  A*0201 (binding information): 0.0006

## VPGAAIPYA
[16]
  B*0702 (binding information): 0.0001

## VIGPFMKAV
[6]
  DR4w4 binding data: -0.0020
[9]
  DR5w12 binding data: 0.0920
[1]
  A*0201 (binding information): 0.0004
[14]
  DR8w2 binding data: 0.0230

## DPNRNVDBIA (EQPQGDDNNL)
[16]
  B*0702 (binding information): 0.0002

## QLVVILIDGI
[1]
  A*0201 (binding information): 0.0002

## KLRICPICHKKL
[1]
  A*0201 (binding information): 0.0001

## WVNHAVPLA
[2]
  DR2w2β1 binding data: 0.0350
[3]
  DR9 binding data: 4.6000
[4]
  DR4w15 binding data: 0.0360
[5]
  DR2w2β2 binding data: 0.1600
[6]
  DR4w4 binding data: 5.0000
[7]
  DRw53 binding data: 0.0430
[8]
  DR3 binding data: 0.4000
[9]
  DR5w12 binding data: 0.0240
[10]
  DR7 binding data: 0.4400
[11]
  DR6w19 binding data: 0.8900
[12]
  DR5w11 binding data: 0.0079
[13]
  DR1 binding data: 0.1900
[1]
  A*0201 (binding information): 0.0008
[14]
  DR8w2 binding data: 1.8000

## SVLACLLGNV
[1]
  A*0201 (binding information): 0.0022
